The text below walks through data of paper PMC11934139.

The target in this assay is αCRP scFv-His6 (LA13-IIE3). Kind of assay: BLI; αCRP scFv (2 μg/mL) immobilised on Octet Ni-NTA biosensors; CRP at 250, 125, 62.5, 15.6 and 7.8 nM; HBS Kinetics Buffer (1% heat-inactivated BSA, 0.2% Tween 20, 10 mM HEPES pH 7.4, 150 mM NaCl), 30 °C; two-state reaction model. On the technique in general: BLI is a label-free optical method that tracks binding on a fibre tip over time.

B1: human C-reactive protein (natural protein)
chain: QTDMSRKAFVFPKESDTSYVSLKAPLTKPLKAFTVCLHFYTELSSTRGYSIFSYATKRQDNEILIFWSKDIGYSFTVGGSEILFEVPEVTVAPVHICTSWESASGIVEFWVDGKPRVRKSLKKGYTVGAEASIILGQEQDSFGGNFEGSQSLVGDIGNVNMWDFVLSPDEINTIYLGGPFSPNVLNWRALKYEVQGEVFTKPQLWP
As for B1, the Kd (usually a measure of binding affinity in units of concentration) is 588 nM.
